Data taken from patent US20250108137A1, “APTAMERS SPECIFIC TO EBV-ASSOCIATED MALIGNANCIES AND THEIR APPLICATIONS IN CANCER IMAGING AND THERAPIES” (priority 2022, published 2025).

T1: MTDH (Homo sapiens, UniProt Q86UE4)
T1 construct: endogenous in cells; host or cells: EBV-positive NPC43 cells
T1 sequence (Q86UE4 1-582): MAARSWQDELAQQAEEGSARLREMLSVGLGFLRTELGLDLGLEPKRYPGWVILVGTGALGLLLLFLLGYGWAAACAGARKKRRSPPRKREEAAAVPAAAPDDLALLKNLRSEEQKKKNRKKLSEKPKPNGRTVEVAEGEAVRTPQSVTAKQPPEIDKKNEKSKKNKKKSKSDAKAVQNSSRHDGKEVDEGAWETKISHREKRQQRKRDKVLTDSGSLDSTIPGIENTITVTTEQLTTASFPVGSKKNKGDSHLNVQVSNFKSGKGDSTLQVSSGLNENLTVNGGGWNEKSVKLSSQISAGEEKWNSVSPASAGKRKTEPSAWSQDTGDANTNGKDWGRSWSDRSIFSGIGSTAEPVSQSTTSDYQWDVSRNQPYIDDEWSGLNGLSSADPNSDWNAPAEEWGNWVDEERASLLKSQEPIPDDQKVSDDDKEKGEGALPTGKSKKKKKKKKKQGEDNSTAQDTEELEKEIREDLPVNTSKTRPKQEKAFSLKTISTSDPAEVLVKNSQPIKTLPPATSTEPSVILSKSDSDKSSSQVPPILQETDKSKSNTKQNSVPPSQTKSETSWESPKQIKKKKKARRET

B1: Apt-1194: DNA aptamer, SEQ ID NO: 2, from Cell-SELEX and in vivo-SELEX on EBV-positive NPC43; binds MTDH (nucleic acid)
DNA: ATCCAGAGTGACGCAGCACCGAGCGAGTTGGTTTGCTGCGGTGGGCAGAGAGGTGGGGTGGACACGGTGGCTTAGT
modifications: DNA, backbone and methylation of C not given here; further chemistry not fully specified
B2: Apt-1798: DNA aptamer, SEQ ID NO: 3, top enriched sequence targeting EBV-positive cells (nucleic acid)
DNA: ATCCAGAGTGACGCAGCAATCGTGGACCTGGCTGTGGTTTGCTGAGGTGGGCGCCAATTGGACACGGTGGCTTAGT
modifications: DNA, backbone and methylation of C not given here
B3: Apt-2019: DNA aptamer, SEQ ID NO: 1, from Cell-SELEX on LMP1-expressing NPC43 cells; binds CNBP (nucleic acid)
DNA: ATCCAGAGTGACGCAGCAGAATGGGTGGGATTCCTCAGAGGGGTTGGTGAGTTTGTGATGGACACGGTGGCTTAGT
modifications: DNA, backbone and methylation of C not given here; further chemistry not fully specified

What was measured:
[1] = target: T1, MTDH; test: Pull-down from NPC43 lysate with mass spectrometry and western blot; type: binding; settings: mass spectrometry, validated by Western blot
Experimental: (§1) The pulldown assay was performed by following the protocol from Shang Guan's lab. Then the protein samples were separated in PAGE gels and stained by pierce silver staining kit from Life Technology. The specific bands around 20 kDa or 70 kDa were sent to Biotech Company (Bei Jing) for mass spectrometry analysis.
(§2) By binding of Apt-1194 & Apt-1798 with a panel of EBV-positive NPC cell lines (NPC43, C666-1 and C17), EBV-negative lung cancer cell line (A549) and nasopharyngcal cell line (NP460), the specificity of Apt-1194 to EBV-positive cells was confirmed (FIG. 4B). Proteins from NPC43 lysate were pulled down by Apt-1194. […] It has been reported that MTDH is a prognosis marker for NPC (19). […] Knockdown of MTDH could suppress proliferation and migration capability in NPC cells (FIG. 4F)

[2] = compared with random aptamer sequences
[3] = tested on: EBV-positive NPC cell lines (NPC43, C666-1 and C17); test: Binding to a panel of EBV-positive and EBV-negative cell lines; settings: EBV-positive NPC43, C666-1, C17; EBV-negative A549, NP460
Experimental: (§3) 10 μM aptamers or aptamer pools were dissolved in DBPS with 5 mM MgCl2 as stock and diluted with binding buffer (DBPS with 5 mM MgCl2, 0.1% BSA, […] and 0.45% glucose) into 200 nM, followed by heating at 95° C. to 5 mins and chilling on ice for 5 mins. Cells were trypsinized and incubated in the aptamer solution at 4° C. for 30-60 mins. After incubation, the cells were washed once by precooled binding buffer. At last, the samples were analyzed on BD flowcytometry. For flow cytometric analysis of bead assay, the NTA beads were incubated with CNBP-his or MTDH-his containing cell lysates or control lysates for 1 hr at 4° C. and then washed with binding buffer for 3 times. After that, the beads were incubated with FAM-Apt-2019 or FAM-Apt-1194 (200 nM) for 30 mins at 4° C. At last, the bead-aptamer complexes were washed 3 times with binding buffer and analyzed by BD flow cytometer.
as §2

[4] = Thioflavin T fluorescent enhancement assay for G-quadruplex formation; type: physicochemical; settings: lithium cacodylate buffer or potassium phosphate buffer
Text: Thioflavin T (ThT) is kind of G4 ligand dye, and its fluorescent signal would increase after binding to G4 structures. So, it is widely used in detecting G4 structure. The Apt-2019 was stained by ThT with the existence of Lit or Kt. Circular dichroism (CD) spectra was used for determination of the subtype of G4 structure.
Both Apt-2019 and Apt-1194 are guanine-rich oligonucleotides (GROs) in which the G content are 43 and 41% respectively. GROs can form stable G-quadruplex structures because four guanine bases form a square planar structure called a G-quartet through Hoogsteen base pairing, and these G-quartets spontaneously assemble into four-stranded helical structures termed G-quadruplex (G4) (FIG. 5A) (20). It is well known that G4-forming oligonucleotides are relatively stable against nuclease degradation (21). Therefore, we checked if Apt-2019 and Apt-1194 can form G4 using Thioflavin T (ThT) as a fluorescence light-up probe for G4 formation (22). […] The higher serum stability of Apt-2019 and Apt-1194 than random non-GC rich aptamers (FIG. 5D) can thus be explained by their stable G4 structure. To further characterize these novel NPC-targeting aptamers, we have measured their equilibrium dissociation constant (Kd).

[5] = tested on: EBV-positive C666-1 tumors; test: In vivo fluorescence imaging of biodistribution, C666-1 tumors; set-up: species or system mice; settings: fluorescence-tagged, tail vein injected, IVIS Spectrum imager
Text: Fluorescence-tagged Apt-2019 and Apt-1194 were tail vein injected in mice bearing C15 tumors (an NPC xenograft with high expression of LMP1 (18)) and EBV-positive C666-1 tumors respectively. […] Tumors and organs (e.g., lungs and spleen) were taken out for fluorescence imaging (IVIS Spectrum imager).

[6] = tested on: EBV-positive C666-1; test: Equilibrium dissociation constant on cells, FITC-tagged Apt-1194; type: binding; settings: serial concentrations of FITC-tagged aptamer
Text: (§4) FIGS. 5A-5G. Characterization of Apt-2019 and Apt-1194. (FIG. 5A) Diagram showing the G-quadraplex structure that can be formed by G-rich aptamers. (FIGS. 5B-5C) Fluorescent enhancement assay (FEA) was used to detect G-quadraplex forming sequences. Both Apt-2019 and Apt-1194 could form into G-quadraplex in the presence of K+ or L+ ions and then light up the ThT ligands. […] (FIGS. 5E-5F) A serial concentrations of FITC-tagged Apt-2019 and Apt-1194 were bound with LMP1-overexpressing NPC43 and EBV-positive C666-1 respectively. Equilibrium dissociation constant (Kd) was then calculated. (FIG. 5G) Apt-2019 was allowed to bind with live NPC cells for 45 mins. Internalization of Apt-2019 was validated by Z-stack imaging of confocal microscope.
as §3, with “For flow cytometric analysis of bead assay, the NTA beads were incubated with CNBP-his or MTDH-his containing cell lysates or control lysates for 1 hr at 4° C. and then washed with binding buffer for 3 times. After that, the beads were incubated with FAM-Apt-2019 or FAM-Apt-1194 (200 nM) for 30 mins at 4° C.” left out

[7] = tested on: NPC43^noEBV-LMP1 cells; test: Flow cytometry and confocal binding to LMP1-expressing cells vs vector control; settings: among 8 selected aptamers; flow cytometric analysis and confocal microscopy; FAM-tagged
Experimental: as §3, with “cytometer. […]” for “cytometer.”
(§5) Identification of Apt-2019 which preferentially binds to LMP1-expressing cells. […] Flow cytometric analyses have shown the gradual increase of fluorescence signals on NPC43^noEBV-LMP1 cells bound with the FAM-tagged aptamers enriched from round 9, 11 and 12 Cell-SELEX (FIG. 1A), indicating a successful enrichment process. […] 8 sequences were selected out based on the sequence similarity and abundance of sequence reads. […]

[8] = tested on: LMP1-overexpressing NPC43; test: Equilibrium dissociation constant on cells, FITC-tagged Apt-2019; type: binding; settings: serial concentrations of FITC-tagged aptamer
Text: as §4
as §3, with “For flow cytometric analysis of bead assay, the NTA beads were incubated with CNBP-his or MTDH-his containing cell lysates or control lysates for 1 hr at 4° C. and then washed with binding buffer for 3 times. After that, the beads were incubated with FAM-Apt-2019 or FAM-Apt-1194 (200 nM) for 30 mins at 4° C.” left out

[9] = target: T2, CNBP (Homo sapiens, UniProt P62633); test: Pull-down assay with mass spectrometry and western blot (LMP1-cell lysates); type: binding; settings: band around 20 kd vs Apt-library; MS/MS; blotted with CNBP antibody
T2 construct: endogenous in cells; host or cells: LMP1-expressing NPC43(noEBV) cell lysate
Experimental: as §1
To identify the target surface protein which was bound by the Apt-2019 on LMP1-expressing cells, we have performed pull-down assay using Apt-2019. […] The proteins from this band were purified from the gel and subjected for protein identification by tandem mass spectrometry (MS/MS). […] To validate CNBP as the target of Apt-2019, the pull-down proteins from Apt-2019 and Apt-library in LMP1-cell lysates were blotted by the antibody against CNBP (FIG. 2A). The docking model between the Apt-2019 and CNBP was also predicted by HDOCK (sec worldwide website: hdock.phys.hust.edu.cn/) (FIG. 2A). Another validation assay was done by flow analysis of CNBP-tagged and non-tagged beads after binding with Apt-2019-FAM (FIG. 2B). […] Moreover, Apt-2019-bounded CNBP was specifically expressed on the cell surface, as both the fluorescent signals of CNBP and Apt-2019 were localized on the ‘non-permeabilized’ NPC43-LMP1 cells. (FIG. 3A). […] All these confirmed Apt-2019 could bind to the cell surface CNBP on NPC cells. […]

[10] = tested on: LMP1-transfected cell lines including HONE1, C17 and NP460; test: Binding to other LMP1-transfected cell lines vs vector control; settings: compared to the vector control cells
Experimental: as §3, §5

[11] = tested on: LMP1-expressing NPC43 cells; test: Internalization by Z-stack confocal microscopy; type: cell-based; settings: live cells, 45 mins
Text: as §4
In live cell imaging, the NPC43-LMP1+ and NPC43-LMP1− cells were seeded in 3.5 cm confocal dishes 24 hrs before. The cells were washed with PBS 2 times and then incubated with 200 nM aptamers in binding buffer for 30 mins and washed with DPBS twice after. The Zeiss LSM880 was used for taking confocal images. In immunofluorescence and aptamer co-staining, the cells were fixed by 4% PFA for 15 mins and then blocked with 3% BSA for 1 hr. CNBP antibody was incubated with the cells in 1:100 dilution (Abclonal, 15110) for 1 hr followed with anti-Rabbit Alex-555 antibody (1:500) for 1 h. After washing for 3 times, FAM-Apt-2019 was added and incubated for 1 h.

[12] = target: T2, CNBP; test: Flow analysis of CNBP-tagged and non-tagged beads with Apt-2019-FAM; type: binding; settings: Apt-2019-FAM 200 nM; CNBP-tagged vs non-tagged beads
Experimental: as §3
(§6) To identify the target surface protein which was bound by the Apt-2019 on LMP1-expressing cells, we have performed pull-down assay using Apt-2019. […] The proteins from this band were purified from the gel and subjected for protein identification by tandem mass spectrometry (MS/MS). […] To validate CNBP as the target of Apt-2019, the pull-down proteins from Apt-2019 and Apt-library in LMP1-cell lysates were blotted by the antibody against CNBP (FIG. 2A). […]

[13] = tested on: C15 tumors (an NPC xenograft with high expression of LMP1); test: In vivo fluorescence imaging of biodistribution, C15 xenograft; set-up: species or system mice; settings: fluorescence-tagged, tail vein injected, IVIS Spectrum imager
Text: Fluorescence-tagged Apt-2019 and Apt-1194 were tail vein injected in mice bearing C15 tumors (an NPC xenograft with high expression of LMP1 (18)) and EBV-positive C666-1 tumors respectively. We have also generated control aptamers to Apt-2019 and Apt-1194 by replacing all the G to C, so as to destroy the G4-forming ability. The resulting control aptamers are named as Apt-NG^2019 (SEQ ID NO: 4; Apt-NG^2019 (14-63) Aptamer: […]) and Apt-NG^1194 (SEQ ID NO:5; Apt-NG^1194 (1-58) Aptamer: […] GGCC). Tumors and organs (e.g., lungs and spleen) were taken out for fluorescence imaging (IVIS Spectrum imager).

[14] = tested on: CNBP-knockout cells; test: Aptamer binding to CNBP-knockout vs parental NPC cells
Experimental: as §3, §6

T2 sequence (P62633 whole entry): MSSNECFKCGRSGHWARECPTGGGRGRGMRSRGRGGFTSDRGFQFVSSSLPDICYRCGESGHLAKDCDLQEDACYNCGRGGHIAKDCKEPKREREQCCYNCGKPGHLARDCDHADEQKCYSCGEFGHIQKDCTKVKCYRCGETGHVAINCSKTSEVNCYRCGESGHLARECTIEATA

Row | Molecule | target identified by pull-down [1] | serum stability [2] | specific binding to EBV-positive vs EBV-negative cell lines [3] | G-quadruplex (G4) formation, ThT light-up [4] | accumulation in the tumors [5] | equilibrium dissociation constant (Kd) [6] | preferential binding to LMP1-expressing cells [7] | equilibrium dissociation constant (Kd) [8] | target identified by pull-down [9] | specific binding ability in LMP1-transfected cell lines [10] | internalization into cells [11] | binding to CNBP-tagged beads [12] | accumulation in the tumors [13] | binding after CRISPR-knockout of CNBP [14]
1 | B1 | MTDH was found to be the target | much higher serum stability than random aptamer sequences | could bind specifically to EBV-positive cell lines but not to EBV-negative cell lines | could fold into G4 | accumulation | nanomolar range |  |  |  |  |  |  |  | 
2 | B2 |  |  | could bind specifically to EBV-positive cell lines but not to EBV-negative cell lines |  |  |  |  |  |  |  |  |  |  | 
3 | B3 |  | much higher serum stability than random aptamer sequences |  | could fold into G4 |  |  | highest preferential binding to LMP1-expressing cells | nanomolar range | CNBP was found to be the potential target | could preferentially bind to all these LMP1-overexpressing cells | could be internalized | could specifically bind to the CNBP-tagged beads | accumulation | inhibited the binding
